Patent publication US20250258173A1 (FUJIREBIO, published 2025)
Read-outs that look alike come from different tables or passages of the source.

Columns and labels:
[1] = target: T1, recombinant N protein of SARS-CoV-2 (whole length, 419 amino acids) (SARS-CoV-2, UniProt P0DTC9 1-419)
T1 construct: also called SARS-CoV-2 N protein; SARS-CoV-2 nucleocapsid protein

[2] = target: T1, recombinant N protein of SARS-CoV-2 …; remark: listed apart in the source
[3] = target: T1, recombinant N protein of SARS-CoV-2 …; remark: listed apart in the source
[4] = target: T1, recombinant N protein of SARS-CoV-2 …; remark: listed apart in the source

B1: anti-N protein antibody C12 (antibody, V domains shown)
VH: EVQLQESGGGLVRPGGSLKLSCAASGFTFSDYYMYWVRQTPEKRLEWVATISDGGRYSYYPDSVKGRFTVSRDNAKNNLYLQMSSLKSEDTAMYYCVRDRYDGWGSDFDVWGAGTTVTVS
VL: DVQITQSPSSMYASLGERVTITCKASQDIKSYLSWYQQKPWKSPKTLIYYATSLADGVPSRFSGSGSGQDYSLTISSLESDDTATYYCLQHGESPWTFGGGTKLEIKR
[1]
  luminescence amount ratio (10 ng/mL/0 ng/mL): 847
[2]
  luminescence amount ratio (10 ng/mL/0 ng/mL): 22.8
[3]
  luminescence amount ratio (10 ng/mL/0 ng/mL): 52.8
[4]
  luminescence amount ratio (10 ng/mL/0 ng/mL): 1.3
